Assays:
[1] = molecular target: T1, pCREB/KIX ternary complex on CRE DNA (pCREB/KIX/CRE) (UniProt P16220-2 1-327; P45481 588-683, phosphoserine at 133 (Ser133)); assay: native gel or EMSA
[2] = molecular target: T1, pCREB/KIX ternary complex on CRE DNA …; assay: native gel or EMSA; remark: listed apart in the source

T1 sequence (P16220 whole entry, chain 1 of 2): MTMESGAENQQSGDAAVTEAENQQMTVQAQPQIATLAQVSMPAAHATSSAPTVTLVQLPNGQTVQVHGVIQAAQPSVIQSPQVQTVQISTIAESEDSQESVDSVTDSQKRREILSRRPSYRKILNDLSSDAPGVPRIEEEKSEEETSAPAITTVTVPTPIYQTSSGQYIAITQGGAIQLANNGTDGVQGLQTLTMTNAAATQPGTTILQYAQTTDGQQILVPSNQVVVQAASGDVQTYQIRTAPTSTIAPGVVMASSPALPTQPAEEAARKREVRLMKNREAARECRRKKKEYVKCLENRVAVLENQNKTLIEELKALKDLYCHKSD
T1 sequence (P45481 588-683, chain 2 of 2): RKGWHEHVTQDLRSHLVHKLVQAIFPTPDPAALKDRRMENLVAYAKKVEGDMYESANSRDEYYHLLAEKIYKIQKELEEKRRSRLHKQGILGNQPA

B1: HTLV-1 Tax protein, Tax-His6 (natural protein)
chain: not shown
[1]
  apparent Kd on vCRE DNA: 2.4 ± 0.1 nM
[2]
  apparent Kd on cyclin D1 CRE DNA: 34 ± 5 nM

Source: article PMC2851846 (Oncogene, 2010)
